Results: patent US20100080799A1 (ROCKEFELLER UNIVERSITY, published 2010)
Where no end group is shown, it is not given here. [ ]: non-standard residue; d: D form. pS = N[C@@H](COP(=O)(O)O)C(=O)O

What was measured:
[1] = target: endogenous BRCA1 from 293T cell nuclear extracts (UniProt P38398 1-1863, limits assumed); experiment: peptide pull-down from 293T nuclear extracts (FIG. 4I)
[2] = target: T1, GST-tagged N-motif (1-205) of the WSTF kinase domain (human, UniProt Q9UIG0 1-205); experiment: co-expression in E. coli, amylose affinity purification against the MBP tag, Superdex 200 gel filtration
T1 construct: Made in E. coli; also called GST-tagged WAC N-; N-terminal motif; not shown: N-terminal GST tag of pGex6p
T1 sequence: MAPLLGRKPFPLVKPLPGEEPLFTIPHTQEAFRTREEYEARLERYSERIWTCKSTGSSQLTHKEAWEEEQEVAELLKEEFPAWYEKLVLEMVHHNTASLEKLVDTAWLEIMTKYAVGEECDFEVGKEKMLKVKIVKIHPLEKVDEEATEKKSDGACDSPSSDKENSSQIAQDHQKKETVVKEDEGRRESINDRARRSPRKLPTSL
Method: For co-expression of the N- and C-motifs of WSTF, the recombinant plasmid vectors carrying the N- and C-motif constructs (above) were transformed into E. coli host strain Rosetta2 (DE3) (Novagen) for protein expression under triple antibiotic selection (ampicillin, kanamycin, and chloramphenicol) in LB medium. After overnight induction by 0.4 mM isopropyl β-D-thiogalactoside at 25° C., cells were harvested in buffer 0.4 M KCl, 20 mM Tris, pH 7.5. Co-expressed proteins were affinity purified using Amylose resin (New England Biolabs, MA) against the MBP tag. Maltose-eluted samples were purified through a Superdex 200 column (GE Healthcare) in the elution buffer (50 mM KCL, 20 mM Tris, pH 7.5). Most proteins were eluted in a single peak that contains GST-tagged […] with a stoichiometry of 1:1.

Chain of endogenous BRCA1 from 293T cell nuclear extracts (P38398 whole entry, the tested form may be a part): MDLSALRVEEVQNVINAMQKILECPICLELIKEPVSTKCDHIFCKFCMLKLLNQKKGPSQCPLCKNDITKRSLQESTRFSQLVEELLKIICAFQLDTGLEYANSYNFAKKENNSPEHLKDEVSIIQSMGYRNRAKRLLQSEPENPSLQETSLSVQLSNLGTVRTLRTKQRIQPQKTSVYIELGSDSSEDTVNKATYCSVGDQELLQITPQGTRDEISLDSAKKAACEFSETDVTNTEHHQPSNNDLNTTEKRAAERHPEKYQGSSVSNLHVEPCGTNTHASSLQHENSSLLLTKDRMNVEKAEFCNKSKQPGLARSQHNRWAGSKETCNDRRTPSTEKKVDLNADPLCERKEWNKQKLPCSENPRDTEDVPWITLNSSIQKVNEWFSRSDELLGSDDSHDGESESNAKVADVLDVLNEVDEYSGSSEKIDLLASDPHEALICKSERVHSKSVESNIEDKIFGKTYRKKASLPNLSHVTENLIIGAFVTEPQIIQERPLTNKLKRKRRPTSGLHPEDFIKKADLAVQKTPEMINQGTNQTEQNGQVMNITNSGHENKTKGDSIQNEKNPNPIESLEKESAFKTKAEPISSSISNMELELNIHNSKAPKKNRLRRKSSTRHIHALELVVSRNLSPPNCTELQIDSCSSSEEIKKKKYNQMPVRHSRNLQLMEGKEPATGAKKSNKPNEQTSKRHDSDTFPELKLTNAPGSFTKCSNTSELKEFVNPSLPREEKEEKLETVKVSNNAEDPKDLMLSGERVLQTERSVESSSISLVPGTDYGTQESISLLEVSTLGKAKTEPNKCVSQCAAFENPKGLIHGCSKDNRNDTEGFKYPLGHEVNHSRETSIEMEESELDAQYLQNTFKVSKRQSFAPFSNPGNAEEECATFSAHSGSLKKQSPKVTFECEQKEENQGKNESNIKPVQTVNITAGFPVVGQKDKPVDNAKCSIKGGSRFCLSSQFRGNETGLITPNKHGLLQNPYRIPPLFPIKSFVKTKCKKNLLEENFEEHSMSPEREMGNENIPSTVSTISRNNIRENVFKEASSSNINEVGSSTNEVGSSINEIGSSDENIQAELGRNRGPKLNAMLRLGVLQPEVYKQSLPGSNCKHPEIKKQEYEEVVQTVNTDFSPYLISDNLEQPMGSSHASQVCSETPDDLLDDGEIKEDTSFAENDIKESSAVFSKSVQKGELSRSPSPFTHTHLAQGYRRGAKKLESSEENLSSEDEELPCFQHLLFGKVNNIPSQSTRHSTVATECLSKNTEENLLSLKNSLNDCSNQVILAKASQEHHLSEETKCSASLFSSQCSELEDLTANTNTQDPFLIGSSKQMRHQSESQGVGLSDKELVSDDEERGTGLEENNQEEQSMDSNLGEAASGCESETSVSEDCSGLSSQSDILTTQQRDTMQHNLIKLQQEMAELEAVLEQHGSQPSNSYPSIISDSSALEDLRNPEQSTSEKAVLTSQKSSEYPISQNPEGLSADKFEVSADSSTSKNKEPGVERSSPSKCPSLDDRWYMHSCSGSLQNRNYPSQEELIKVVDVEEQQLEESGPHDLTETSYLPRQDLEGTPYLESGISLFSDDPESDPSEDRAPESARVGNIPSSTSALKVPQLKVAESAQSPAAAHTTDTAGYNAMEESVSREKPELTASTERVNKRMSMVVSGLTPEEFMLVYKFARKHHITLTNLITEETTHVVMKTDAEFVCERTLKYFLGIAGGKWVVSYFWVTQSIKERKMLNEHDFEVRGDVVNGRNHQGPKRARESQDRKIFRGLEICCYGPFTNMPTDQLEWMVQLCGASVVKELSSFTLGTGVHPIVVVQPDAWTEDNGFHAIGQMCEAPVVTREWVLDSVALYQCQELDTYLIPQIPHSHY

B1: H2A.X peptide S139(ph), N-CPSGGKKATQApSQEY-C (peptide)
peptide: CPSGGKKATQA[pS]QEY
notes: Pull-down peptide; also called Ser139(ph) peptides; H2A.X peptides singly phosphorylated on Ser139
B1: no binding [1].

B2: MBP-tagged C-motif (208-345) of the WSTF kinase domain (other)
chain: GERKWAPPKFLPHKYDVKLQNEDKIISNVPADSLIRTERPPNKEIVRYFIRHNALRAGTGENAPWVVEDELVKKYSLPSKFSDFLLDPYKYMTLNPSTKRKNTGSPDRKPSKKSKTDNSSLSSPLNPKLWCHVHLKKS
notes: Made in E. coli; also called MBP-tagged WAC C-motif; not shown: N-terminal MBP tag of a modified pRSFDuet-1
B2: binds [2].
